Measured values published in patent publication US20180216094A1 (University of California, published 2018).

Target: T1, FXIS557A catalytic domain (catalytically inactive catalytic domain of human FXI, Ile370 to Ala606 of SEQ ID … (human))
T1 construct: The range 20-264 is worked out from 19 signal residues + 237 domain residues + 8 His; also called FXIS557A catalytic domain decoy; decoy
Experiment: SPR (Biacore T200), biotinylated FXIS557A catalytic domain captured on CAP chip, DEF Fab injected, 37 C, 1:1 Langmuir fit
Description: Binding affinity was measured using a Biacore T200 Instrument (GE Healthcare). Recombinant FXIS557A catalytic domain was biotin labeled via primary amines and captured on a Biacore CAP chip (GE Healthcare). Experiments were performed at 37° C. using a 30 μ/min flow rate in 10 mM HEPES (pH 7.4), 150 mM NaCI and 0.005% v/v Surfactant P20 (HBSp) buffer (GE Healthcare). After each DEF Fab injection, the chip surface was regenerated with a solution of 6 M guanidine-HCl and 0.25 M NaOH, coated with the CAP reagent and new FXIS557A was captured. All data was analyzed using the Biacore T200 Evaluation software and background and buffer subtracted data fit to a 1:1 Langmuir binding model. Results were reported as the mean of two experiments.

koff: 0.000445 s⁻¹
kon: 2.95e+06 M⁻¹ s⁻¹
B1: DEF Fab (Fab, V domains shown)
VH: EVQLVQSGAEVKKPGASVKVSCKASGYTFTGYYMHWVRQAPGQGLEWMGWIDPDEGDTNYAQKFQGRVTMTRDTSISTAYMELSRLRSDDTAVYYCARLASGFRDYWGQGTLVTVSS
VL: DIVMTKSPSSLSASVGDRVTITCRASQGIRNDLGWYQQKPGKAPKRLIYAASSLQSGVPSRFSGSGSGTEFTLTISSLQPEDFATYYCLQHDIYASTFGPGTKVDIKR
notes: Fab form of antibody DEF
